Test results taken from patent US20250034594A1, “RNA-GUIDED GENOME RECOMBINEERING AT KILOBASE SCALE” (THE BOARD OF TRUSTEES OF THE LELAND STANFORD JUNIOR …, priority 2021, published 2025).

B1: SSAP_252: SEQ ID NO: 421; Bacteroides pyogenes DSM 20611 = JCM 6294 (protein)
chain: QVADPQSVLNSAVIAATLDLPINPNLGFAAIVPYNDRKSGKCIAQFQLMYKGLVELCLRSGQFASLIDEVVYEGQIVKKNKFTGEYIFDEDAKTSNKVIGYMAYFRLVNGFEKTFYMTSEEVTAHAKAYSQSFKSGYGVWKDNFDIMARKTVLKLLLSKYAPKSIEMQRAITFDQAAVKGDLTETNVDEAEIEYIDNESGSDKIKQAAEDAVIQSQQKTLL
modifications: Bacteroides pyogenes
B2: SSAP_5: SEQ ID NO: 174 (protein)
chain: ANELGIFSVDNLNMTTIKQYLDGGGKASDAELVLLINLCKQNNMNPFMKEVYFIKYGNQPAQIVVSRDFYRKRAFQNPNFVGIEVGVIVLNKDGVLEHNEGTFKTHEQELVGAWARVHLKNTEIPVYVAVSYDEYVQMKDGHPNKMWTNKPCTMLGKVAESQALRMAFPAEFSGTYGEEEYPEPEKEPREVNGVKEPDRAQIESFDKEDYAAKKIEELKEKAQPQKEVVEETGEVIDEEPLEGF
B3: SSAP_138: SEQ ID NO: 307; unclassified Coprococcus (protein, listed as Coprococcus sp.)
chain: ANNIDLKQELAEQASKVPAKKDEEVKLTKSMTIPDMVKAMMPEIKKALPAVMTPERFTRIALSALNTTPALNQCTPMSFLAALMNAAQLGLEPNTPLGQAYLIPYKNHGTLECQFQIGYKGLIELAYRSGQMQTIQAQTVYENDEFAYQYGLEPVLVHRPAYSDRGEVKYFYGIFKTVNGGYGMAVMSRAEMDLYAKTYSKAYDSSYSPWKSNYEDMAKKTVIKQALKYAPIKTDFQRALSFDETIKKEISLDMSTVKNELLDVA
B4: SSAP_49: SEQ ID NO: 218 (protein)
chain: TNNQLATQTKRNITTDPSLLTGADIKKYFDPQNLLTEKQVGQALALCKGRNLNPFANEVYIVAYTNRNGGKEFSLIVSKEAFLKRAAQCKDYEGFEAGVVVVDSEGVMHERKGAIMLPEDTLIGGWARVHRKNFKVPVEIVVSREEYDKKQSTWNTMPATMIRKVALVNALREAFPEDLGNMYTEDDGGETFDRIKDVTPQESREDVVARKMAEIEQFNKEQETNHADPEPAQTEETIQGELLDGELEY
B5: SSAP_270: SEQ ID NO: 439; Lactococcus sp. DD01 (protein, listed as Lactococcus sp.)
chain: ANLTPTQTVLKSDAAKRKFEEVLGKKTNGFVGSLLSLVGSTNLKNVDSNSVMTAAMKAATLDLPIEPSLGFAYVIPYGREAQFQIGYKGLIQLAIRSGQVTKLNAGPVYENQFIKYDSLFEELEIDFSMPQGVEIAGYFASMELANGFRKIIYWDKEKVTAHGKRFSKSFNRSSSPWQTDFDAMATKTVLKAMLSTYAPLSTEMQQAIVADNESATPKDATPVTDDLVLEAVEDSKQIEENEIINDQVASENYQEPQGEPEVLDLEL

What was measured:
Type in all cases: cell-based
[1] = tested on: gene editing with dCas9; test: Screen of 322 new SSAP proteins, gene editing activity with dCas9 (Table 5); set-up: dCas9 with SSAP activity: scale not given here
In short: (§1)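 Sequence-mined SSAPs (n=322), synthesized; editing activity screened with Cas9 or dCas9.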

[2] = tested on: gene editing with Cas9; test: Screen of 322 new SSAP proteins, gene editing activity with Cas9 (Table 5); set-up: Cas9 with SSAP activity: scale not given here
In short: as §1

[3] = tested on: gene editing with Cas9 and dCas9; test: Screen of 322 new SSAP proteins, activity across all experiments (Cas9 and dCas9, Table 5); set-up: scale not given here
In short: as §1

| Molecule | dCas9 with SSAP activity [1] | dCas9 with SSAP activity (normalized) [1] | Cas9 with SSAP activity [2] | Cas9 with SSAP activity (normalized) [2] | Activity across all experiments [3] |
| --- | --- | --- | --- | --- | --- |
| B1 | −0.876 | −0.635 | −0.275 | −0.560 | −0.575 |
| B2 | −0.854 | −0.392 | −0.026 | −0.032 | −0.440 |
| B3 | −1.000 | −0.320 | −1.429 | −0.887 | −1.214 |
| B4 | −0.987 | −0.289 | −0.515 | −0.176 | −0.751 |
| B5 | −0.896 | −0.293 | 0.154 | 0.174 | −0.371 |
